One test has as its target T1, p85β cSH2 (603-712) (mouse, UniProt O08908 603-712).
T1 construct: PI3-Kinase regulatory subunit p85β, C-terminal SH2 domain, residues 603-712; also called cSH2 domain of p85β; source: E. coli, purified (glutathione-agarose, HRV 3C cleavage, S75 size exclusion)
T1 sequence (looked up): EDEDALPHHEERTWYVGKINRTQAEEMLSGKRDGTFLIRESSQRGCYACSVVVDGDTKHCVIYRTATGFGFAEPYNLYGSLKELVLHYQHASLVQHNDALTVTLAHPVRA
Description: fluorescence polarisation; 5-FAM peptide at 20 nM (CD28, p85α, phospho-p85α) or 40 nM (p85β, phospho-p85β), SH2 domain titrated; 298 K; anisotropy fitted to a single site binding isotherm. The note with it: both partners purified.

The target of a further test is T2, p85α cSH2 (614-720) (human, UniProt P27986 614-720).
T2 construct: PI3-Kinase regulatory subunit p85α, C-terminal SH2 domain, residues 614-720; also called cSH2 domain of p85α; source: E. coli, purified (glutathione-agarose, HRV 3C cleavage, S75 size exclusion)
The description is as above. The note with it: both partners purified.

Where no end group is shown, it is not given here. [ ]: non-standard residue; d: D form. The star is where a group is joined. 5FAM = O=C1OC2(c3ccc(O)cc3Oc3cc(O)ccc32)c2ccc(C(=O)*)cc21; pY = N[C@@H](Cc1ccc(OP(=O)(O)O)cc1)C(=O)O

T2 sequence (P27986 614-720): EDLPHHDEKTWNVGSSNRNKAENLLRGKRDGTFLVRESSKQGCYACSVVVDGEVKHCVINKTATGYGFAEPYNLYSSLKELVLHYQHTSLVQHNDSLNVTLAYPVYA

B1: CD28 peptide, [5-FAM]-SD-[pY]-MNMTP (peptide)
peptide: 5FAM-SD[pY]MNMTP
notes: known SH2 target phosphopeptide from CD28; also called control peptide from CD28; source: synthetic peptide, bought: Biomatik
B1: the binding result in the test with p85β cSH2 (603-712) and with p85α cSH2 (614-720) was “binds” in each case.
